# Results taken from article PMC3289641.
# Target: GST-fused core106 (HCV core, residues 1-106) (hepatitis C virus (genotype not stated))
# Assay: AlphaScreen or HTRF; GST-core106 and Flag-core106 at 150 nM each; glutathione donor beads and anti-Flag acceptor beads 20 ug/ml; room temperature; protein buffer 100 mM HEPES pH 7.5, 1 mM EDTA, 5 mM DTT, 0.1% CHAPS, 10% glycerol; untagged core106 added as reference inhibitor
substance,measurement,value
"HCV core106 (1-106 residues), untagged core106 domain (domain or fragment)",percent inhibition of core dimerization,91%
